In publication PMC3778281:

Target: F8–TNF (murine)
Assay: SEC

A stoichiometry N of 3 was found for F8–TNF in this work.
